One data set relates to EGF receptor. Put plainly: Substrate protection: EGF receptor tyrosine phosphorylation in COS1 cells expressing PTP1B forms (anti-pTyr Western blot). Type of data set: cell-based, Monkey. The conditions noted are these: COS1 cell lysates, anti-pTyr immunoblot (FIG. 4). On the technique in general: A western blot detects proteins with antibodies after separation by electrophoresis.

Data set [1] deals with T1, EGFR 988-998 peptide DADEpYLIPQQG.
T1 chain: DADEXLIPQQG

A short description of data set [2]: Kinetic constants for PTP1B-catalyzed hydrolysis of pNPP. The conditions noted are these: pNPP as substrate. The format is biochemical. The text has this:
The catalytic domain of PTP1B (residues 1 to 321) was used for in vitro study. PTP1B mutants, C215S, D181A, and Q262A, were described previously (9, 25, 26). PTP1B double mutants, D181A/C215S and C215S/Q262A, were generated by PCR reactions, according to the standard procedure of the Quick-Change™ site-directed mutagenesis kit (Stratagene), using pT7-7/PTP1B/C215S as a template. PTP1B double mutants, D181A/C215E and D181A/Q262A, were generated by similar PCR procedures, using pT7-7/PTP1B/D181A as a template. The recombinant wild-type and mutant PTP1Bs were expressed in E. coli, and purified to homogeneity as described (25, 27). Protein concentration was determined from absorbance measurement at 280 nm, using an absorbance coefficient of 1.24 for 1 mg/ml PTP1B.
PTP activity was assayed at 25° C. and pH 7.0, in a reaction mixture (0.2 ml) containing pNPP concentrations ranging from 0.2 to 5 Km. The following buffered solution was used for activity measurements: pH 7.0, 50 mM 3,3-dimethylglutarate, 1 mM EDTA; the ionic strength was 0.15 M, as adjusted by addition of NaCl. Initial rate measurements for the enzyme-catalyzed hydrolysis of pNPP were conducted as previously described (26). Michaelis-Menten kinetic parameters were determined from a direct fit of the data to the Michaelis-Menten equation, using the nonlinear regression program, KINETASYST (Intellikinetics, State College, Pa.).

[ ]: non-standard residue; d: D form. F2Pmp = N[C@@H](Cc1ccc(C(F)(F)P(=O)(O)O)cc1)C(=O)O

B1: PTP1B/D181A/Q262A, catalytic domain (residues 1 to 321) (enzyme, human, UniProt P18031 1-321, looked up)
chain: MEMEKEFEQIDKSGSWAAIYQDIRHEASDFPCRVAKLPKNKNRNRYRDVSPFDHSRIKLHQEDNDYINASLIKMEEAQRSYILTQGPLPNTCGHFWEMVWEQKSRGVVMLNRVMEKGSLKCAQYWPQKEEKEMIFEDTNLKLTLISEDIKSYYTVRQLELENLTTQETREILHFHYTTWPAFGVPESPASFLNFLFKVRESGSLSPEHGPVVVHCSAGIGRSGTFCLADTCLLLMDKRKDPSSVDIKKVLLEMRKFRMGLIATADQLRFSYLAVIEGAKFIMGDSSVQDQWKELSHEDLEPPPEHIPPPPRPPKRILEPHN
notes: range 1-321; Used in vitro (ITC, kinetics); also called PTP1B substrate-trapping double mutant
What is called Km is the concentration of substrate that gives half-maximal velocity. For the molecule B1, in the data set on EGF receptor, the “level of pTyr in the EGF receptor / enhancement of EGF receptor phosphorylation” value is given as “most pronounced” and the “protection of phosphorylated EGF receptors, fold better than D181A” value is “more than 3 fold”. Also, the Km (hydrolysis of the EGFR 988-998 peptide, 25 C, pH 7.0) in data set [1] came to 51 µM. Further, in data set [2], the “fold decrease in Km relative to D181A” value is 33 fold and the “fold decrease in kcat relative to D181A” value worked out at 11 fold. In data set [2] (25° C. and pH 7.0), the Km amounted to 2.4 ± 0.5 µM and the kcat result is on record as “(2.8 ± 0.1) × 10^−3 s^−1”.

The values are drawn from US8071348B2, “Protein tyrosine phosphatase substrate-trapping double mutant and uses thereof” (Albert Einstein College of Medicine of Yeshiva University, priority 2002, dated 2011).
